Measured values from US20190077860A1 (EISAI R AND D MANAGEMENT, published 2019).
Where a chain is given by its changes, count along the chain named. Each block holds one binder with its values, some of them ahead of it.

Legend:
[1] = target: T1, human EphB4 extracellular region-SEAP-His protein (human, UniProt P54760 16-539); assay: ELISA
T1 construct: extracellular domain; also called hEphB4-SEAP-His
T1 sequence (looked up): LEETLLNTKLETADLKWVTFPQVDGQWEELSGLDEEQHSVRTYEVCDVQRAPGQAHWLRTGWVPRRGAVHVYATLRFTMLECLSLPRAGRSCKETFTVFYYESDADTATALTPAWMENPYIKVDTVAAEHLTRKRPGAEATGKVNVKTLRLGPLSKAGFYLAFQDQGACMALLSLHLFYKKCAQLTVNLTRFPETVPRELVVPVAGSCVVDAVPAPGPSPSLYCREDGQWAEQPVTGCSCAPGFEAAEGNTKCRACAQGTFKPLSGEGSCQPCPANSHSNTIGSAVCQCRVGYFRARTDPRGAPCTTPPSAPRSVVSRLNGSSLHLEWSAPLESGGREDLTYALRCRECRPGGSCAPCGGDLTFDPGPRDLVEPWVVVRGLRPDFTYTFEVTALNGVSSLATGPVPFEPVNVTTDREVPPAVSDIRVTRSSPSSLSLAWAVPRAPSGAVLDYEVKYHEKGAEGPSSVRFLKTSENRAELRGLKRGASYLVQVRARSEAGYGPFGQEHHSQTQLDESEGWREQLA

[2] = target: T2, human EphA7 extracellular region-SEAP-His protein (human, UniProt Q15375 28-555); assay: ELISA
T2 construct: extracellular domain; also called hEphA7-SEAP-His
T2 sequence (looked up): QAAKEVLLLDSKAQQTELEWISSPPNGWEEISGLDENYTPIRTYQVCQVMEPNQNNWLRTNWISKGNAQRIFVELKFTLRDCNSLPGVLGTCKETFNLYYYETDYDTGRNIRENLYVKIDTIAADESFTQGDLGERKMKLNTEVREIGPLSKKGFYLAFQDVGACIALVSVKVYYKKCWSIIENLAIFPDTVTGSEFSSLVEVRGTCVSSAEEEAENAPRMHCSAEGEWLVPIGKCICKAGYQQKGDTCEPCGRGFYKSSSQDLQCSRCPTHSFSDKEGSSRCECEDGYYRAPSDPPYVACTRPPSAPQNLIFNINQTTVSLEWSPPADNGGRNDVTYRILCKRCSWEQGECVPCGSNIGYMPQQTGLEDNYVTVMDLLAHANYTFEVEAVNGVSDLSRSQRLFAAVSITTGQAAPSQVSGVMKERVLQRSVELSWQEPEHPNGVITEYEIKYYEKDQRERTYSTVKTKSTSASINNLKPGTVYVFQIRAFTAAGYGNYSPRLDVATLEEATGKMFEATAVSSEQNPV

[3] = target: mouse EphA4 extracellular region-SEAP-His protein (mouse); assay: competition ELISA, competitor biotinylated mouse Ephrin B2-Fc; alternative value in brackets
Method: Antibody A-Fab and antibody A-F(ab′)₂ obtained in Example 5 were evaluated for their inhibitory activity against the binding between EphA4 and its ligand according to the following steps. Each well of a 96-well plate (Nunc) was coated with an anti-alkaline phosphatase antibody (Thermo Fisher Scientific). After incubation overnight at 4° C., each well was blocked with 1% BlockAce (DS Pharma Biomedical) at room temperature for 1 hour. After washing with 0.05% Tween 20/PBS (Thermo Fisher Scientific) three times, the mouse EphA4 extracellular region-SEAP-His protein obtained by the method of Example 1 was added (final concentration: 10 nM) to each well and incubated at room temperature for 1 hour. After washing three times, a ligand and serially diluted antibody A (0, 0.003, 0.01, 0.03, 0.1, 0.3, 1, 3, 10, 30, 100, 300, 1000, and 3000 nM), antibody A-Fab (0, 0.003, 0.01, 0.03, 0.1, 0.3, 1, 3, 10, 30, 100, 300, 1000, and 3000 nM), antibody A-F(ab′)₂ (0, 0.003, 0.01, 0.03, 0.1, 0.3, 1, 3, 10, 30, 100, 300, 1000, and 3000 nM), or the EphA4 inhibitor KYL peptide ([…], 0, 0.0003, 0.001, 0.003, 0.01, 0.03, 0.1, 0.3, 1, 3, 10, 30, 100, 300, 1000, and 3000 μM, its synthesis was outsourced to Toray Research Center) were added to each well. […] The absorbance at 450 nm was read using a microplate reader (Molecular Devices or PerkinElmer). […]

mouse EphA4 extracellular region-SEAP-His protein (mouse), sequence (chain, as listed by the source limits assumed): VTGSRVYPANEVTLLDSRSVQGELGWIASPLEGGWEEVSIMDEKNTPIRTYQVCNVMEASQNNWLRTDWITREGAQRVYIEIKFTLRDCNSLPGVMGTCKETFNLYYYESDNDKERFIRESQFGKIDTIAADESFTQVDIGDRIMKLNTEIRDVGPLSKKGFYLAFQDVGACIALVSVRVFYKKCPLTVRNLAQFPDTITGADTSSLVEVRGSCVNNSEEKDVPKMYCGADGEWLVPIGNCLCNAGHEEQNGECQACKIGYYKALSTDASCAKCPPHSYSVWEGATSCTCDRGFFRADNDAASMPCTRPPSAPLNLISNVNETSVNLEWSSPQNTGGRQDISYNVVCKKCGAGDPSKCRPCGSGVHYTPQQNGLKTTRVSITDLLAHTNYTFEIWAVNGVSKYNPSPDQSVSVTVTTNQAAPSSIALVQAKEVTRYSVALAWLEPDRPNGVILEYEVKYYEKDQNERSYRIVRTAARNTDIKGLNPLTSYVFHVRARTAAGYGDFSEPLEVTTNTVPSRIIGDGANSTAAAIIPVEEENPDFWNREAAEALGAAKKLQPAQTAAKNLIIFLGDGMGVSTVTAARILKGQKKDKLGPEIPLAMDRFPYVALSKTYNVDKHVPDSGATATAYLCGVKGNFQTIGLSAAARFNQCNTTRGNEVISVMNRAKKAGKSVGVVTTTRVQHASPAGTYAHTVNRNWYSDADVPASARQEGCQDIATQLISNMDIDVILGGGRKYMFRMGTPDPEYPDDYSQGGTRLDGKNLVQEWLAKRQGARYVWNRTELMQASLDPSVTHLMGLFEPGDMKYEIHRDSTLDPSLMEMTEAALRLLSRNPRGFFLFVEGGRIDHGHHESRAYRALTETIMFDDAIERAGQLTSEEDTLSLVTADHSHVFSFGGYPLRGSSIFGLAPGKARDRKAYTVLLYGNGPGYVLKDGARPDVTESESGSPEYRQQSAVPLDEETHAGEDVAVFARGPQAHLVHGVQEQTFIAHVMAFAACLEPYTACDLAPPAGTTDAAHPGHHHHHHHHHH

A450 as % of hEphA4-SEAP-His [1]: 5.2%
A450 as % of hEphA4-SEAP-His [2]: 5.4%
B1: humanized antibody No. 136 (antibody, human IgG2)
heavy: QVQLVQSGSELKKPGASVKVSCKASGYTFTDYSMHWVRQAPGQGLKWMGWINTETGEPTYADDFKGRFVFSLDTSVSTAYLQISSLKAEDTAVYYCARIPLYYYGSRYWYFDVWGQGTTVTVSSASTKGPSVFPLAPSSRSTSESTAALGCLVKDYFPEPVTVSWNSGALTSGVHTFPAVLQSSGLYSLSSVVTVPSSNFGTQTYTCNVDHKPSNTKVDKTVERKSCVECPPCPAPPAAAPSVFLFPPKPKDTLMISRTPEVTCVVVDVSHEDPEVQFNWYVDGVEVHNAKTKPREEQFNSTFRVVSVLTVVHQDWLNGKEYKCKVSNKGLPAPIEKTISKTKGQPREPQVYTLPPSREEMTKNQVSLTCLVKGFYPSDIAVEWESNGQPENNYKTTPPMLDSDGSFFLYSKLTVDKSRWQQGNVFSCSVMHEALHNHYTQKSLSLSPG
light: EIVMTQSPATLSVSPGERATLSCRASENIYRNLAWYQQKPGQSPRLLIYAATNLADGIPARFSGSGSGTEYTLTISSLQSEDFAVYYCQHFWGTPWTFGQGTKVEIKRTVAAPSVFIFPPSDEQLKSGTASVVCLLNNFYPREAKVQWKVDNALQSGNSQESVTEQDSKDSTYSLSSTLTLSKADYEKHKVYACEVTHQGLSSPVTKSFNRGEC
notes: human Ig kappa; also called L2-4/HK2

A450 as % of hEphA4-SEAP-His [1]: 5.5%
A450 as % of hEphA4-SEAP-His [2]: 5.3%
B3: humanized antibody No. 96 (antibody, human IgG1, kappa)
heavy: QVQLVQSGSELKKPGASVKVSCKASGYTFTDYSMHWVRQAPGQGLKWMGWINTETGEPTYADDFKGRFVFSLDTSVSTAYLQISSLKAEDTAVYYCARIPLYYYGSRYWYFDVWGQGTTVTVSSASTKGPSVFPLAPSSKSTSGGTAALGCLVKDYFPEPVTVSWNSGALTSGVHTFPAVLQSSGLYSLSSVVTVPSSSLGTQTYICNVNHKPSNTKVDKRVEPKSCDKTHTCPPCPAPPAAAPSVFLFPPKPKDTLMISRTPEVTCVVVDVSHEDPEVQFNWYVDGVEVHNAKTKPREEQFNSTFRVVSVLTVVHQDWLNGKEYKCKVSNKGLPAPIEKTISKTKGQPREPQVYTLPPSREEMTKNQVSLTCLVKGFYPSDIAVEWESNGQPENNYKTTPPMLDSDGSFFLYSKLTVDKSRWQQGNVFSCSVMHEALHNHYTQKSLSLSPG
light: B1 light
notes: as for B1

A450 as % of hEphA4-SEAP-His [1]: 5.7%
A450 as % of hEphA4-SEAP-His [2]: 5.8%
B4: humanized antibody No. 137 (antibody, human IgG2)
heavy: B1 heavy with V2I
light: B1 light
notes: human Ig kappa; also called L2-4/HK4

Continued, binder first:

B2: humanized antibody No. 94 (antibody, human IgG1, kappa)
heavy: B3 heavy with D62Q, D63G, K65T
light: B1 light
notes: human Ig kappa; also called L2-4/HA2
A450 as % of hEphA4-SEAP-His [1]: 6.5%
A450 as % of hEphA4-SEAP-His [2]: 6.1%

B5: humanized antibody No. 95 (antibody, human IgG1, kappa)
heavy: B3 heavy with K46E
light: B1 light
notes: human Ig kappa; also called L2-4/HK1
A450 as % of hEphA4-SEAP-His [1]: 4.6%
A450 as % of hEphA4-SEAP-His [2]: 4.4%

B6: humanized antibody No. 93 (antibody, human IgG1, kappa)
heavy: B3 heavy with K46E, D62Q, D63G, K65T
light: B1 light
notes: human Ig kappa; also called L2-4/HA1
A450 as % of hEphA4-SEAP-His [1]: 5%
A450 as % of hEphA4-SEAP-His [2]: 4.9%

B7: humanized antibody No. 71 (antibody, human IgG1, kappa)
heavy: B3 heavy with V2I, D62Q, D63G, K65T
light: B1 light
notes: human Ig kappa; also called L2-4/HA4
A450 as % of hEphA4-SEAP-His [1]: 5.5%
A450 as % of hEphA4-SEAP-His [2]: 5.2%

B8: humanized antibody No. 73 (antibody, human IgG1, kappa)
heavy: B3 heavy with V2I
light: B1 light
notes: as for B4
A450 as % of hEphA4-SEAP-His [1]: 5.7%
A450 as % of hEphA4-SEAP-His [2]: 5.6%

B9: antibody A (antibody, mouse IgG1, kappa, V domains shown)
VH: QIQLVQSGPELKKPGETVKISCKASGYTFTDYSMHWVKQAPGKGLKWMGWINTETGEPTYADDFKGRFAFSLETSASTAYLQINNLKNEDTATYFCARIPLYYYGSRYWYFDVWGAGTTVTVSS
VL: DIQMTQSPASLSVSVGETVTITCRASENIYRNLAWYQQKQGKSPQLLVYAATNLADGVPSRFSGSGSGTQYSLKINSLQSEDFGSYYCQHFWGTPWTFGGGTKLEIKR
notes: mouse IgG1 heavy chain, kappa light chain; purified from hybridoma supernatant; also called anti-EphA4 monoclonal antibody; antibody A-IgG
IC50 [3]: 3.6 nM
